Source: patent US20100040606A1 (SYMPHOGEN A S, published 2010)
Residue numbers refer to the chain shown, from its start.

T1: recombinant human fractalkine (CX3CL1; R&D systems) (human, UniProt P78423 25-100)
T1 sequence (looked up): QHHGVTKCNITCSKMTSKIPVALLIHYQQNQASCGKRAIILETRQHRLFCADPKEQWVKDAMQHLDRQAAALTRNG

T2: soluble recombinant G protein (amino acids 66-292 of the 18537 strain sequence) (RSV strain 18537 (subtype B), UniProt P20896 66-292)
T2 construct: also called G(B); recombinant protein G
T2 sequence: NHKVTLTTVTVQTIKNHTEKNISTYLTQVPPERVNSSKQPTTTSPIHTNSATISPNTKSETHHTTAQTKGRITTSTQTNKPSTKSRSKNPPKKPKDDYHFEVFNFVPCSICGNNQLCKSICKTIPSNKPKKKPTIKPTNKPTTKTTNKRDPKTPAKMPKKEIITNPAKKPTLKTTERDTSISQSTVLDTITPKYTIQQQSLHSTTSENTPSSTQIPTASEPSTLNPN

B1: antibody from clone 855 (antibody, human IgG1, kappa, V domains shown)
VH: QVQLVQSGPEVKKPGASVKVSCKASGYVLTNYAFSWVRQAPGQGLEWLGWISGSNGNTYYAEKFQGRVTMTTDTSTSTAYMELRSLRSDDTAVYFCARDLLRSTYFDYWGQGTLVTVSS
VL: DIQMTQSPSSVSASVGDRVTITCRASQAISNWLAWYQQKPGKAPKLLIYAASSLQSGVPSRFSGSGSGTDFTLTISGLQPEDFATYYCQQADTFPFTFGPGTKVDIKR
B2: Fab fragment of antibody from clone 796 (Fab, V domains shown)
VH: QVQLVESGGGVVQPGRSLRLSCAASGFSFSHFGMHWVRQVPGKGLEWVAIISYDGNNVHYADSVKGRFTISRDNSKNTLFLQMNSLRDDDTGVYYCAKDDVATDLAAYYYFDVWGRGTLVTVSS
VL: DIVMTQTPLSLSVTPGQPASISCRSSQSLLRSDGKTFLYWYLQKPGQSPQPLMYEVSSRFSGVPDRFSGSGSGADFTLNISRVETEDVGIYYCMQGLKIRRTFGPGTKVEIKR
notes: also called Fab clone 796; 796 (G)
B3: antibody from clone 793 (antibody, human IgG1, kappa, V domains shown)
VH: QVQLVESGGGLVKPGGSLRLSCAASGFPFGDYYMSWIRQAPGKGLEWVAYINRGGTTIYYADSVKGRFTISRDNAKNSLFLQMNSLRAGDTALYYCARGLILALPTATVELGAFDIWGQGTMVTVSS
VL: DIQMTQSPSSLSASVGDRVTITCRASQSITGYLNWYQQKPGKAPKLLIYATSTLQSEVPSRFSGSGSGTDFTLTISSLQPEDFATYYCQQSYNTLTFGGGTKVEIKR
B4: Fab fragment of antibody from clone 838 (Fab, V domains shown)
VH: QVQLVESGGGVVQPGTSLRLSCAASGFTFSTFGMHWVRQAPGKGLEWVAVISYDGNKKYYADSVKGRFTISRDNSKNTLYLQVNSLRVEDTAVYYCAAQTPYFNESSGLVPDWGQGTLVTVSS
VL: DIQMTQSPSSLSASVGDRVSITCRASQGISNYLAWYQQKPGKVPKLLIYAASTLQSGVPSRFSGSGSGTDFTLTISSLQPEDVATYYCQKYNSAPQTFGQGTKVEIKR
notes: also called Fab clone 838; 838 (G)
B5: Fab fragment of antibody from clone 859 (Fab, V domains shown)
VH: QVQLVESGGGVVQPGRSLRLSCAVSGSSFSKYGIHWVRQAPGKGLEWVAVISYDGSKKYFTDSVKGRFTIARDNSQNTVFLQMNSLRAEDTAVYYCATGGGVNVTSWSDVEHSSSLGYWGLGTLVTVSS
VL: B4 VL with S20T, S30R, I48V, Y49F, K90R, Q96L, Q100G
notes: also called Fab clone 859; 859 (G)
B6: Fab fragment of antibody from clone 811 (Fab, V domains shown)
VH: QVQLVQSGAVVETPGASVKVSCKASGYIFGNYYIHWVRQAPGQGLEWMAVINPNGGSTTSAQKFQDRITVTRDTSTTTVYLEVDNLRSEDTATYYCARQRSVTGGFDAWLLIPDASNTWGQGTMVTVSS
VL: DIVMTQSPDSLAVSLGERATINCRSSETVLYTSKNQSYLAWYQQKARQPPKLLLYWASTRESGVPARFSGSGSGTDFTLAISSLQAEDVAVYYCQQFFRSPFTFGPGTRLEIKR
notes: also called Fab clone 811; 811 (G)
B7: antibody from clone 856 (antibody, human IgG1, kappa, V domains shown)
VH: QVQLVQSGAEVKKPGASVKVSCKASGYTFSNYGFSWVRQAPGRGLEWMGWISAYNGNTYYAQNLQGRVTMTTDTSTTTAYMVLRSLRSDDTAMYYCARDGNTAGVDMWSRDGFDIWGQGTMVTVSS
VL: DIVMTQTPLSLPVTPGEPASISCRSSQSLLDSNDGNTYLDWYLQKPGQSPQLLIYTFSYRASGVPDRFSGSGSGTDFTLKISRVEAEDVGVYYCMQRIEFPYTFGQGTKLEIKR
B8: Palivizumab (antibody, V domains shown)
VH: QVTLRESGPALVKPTQTLTLTCTFSGFSLSTSGMSVGWIRQPPGKALEWLADIWWDDKKDYNPSLKSRLTISKDTSKNQVVLKVTNMDPADTATYYCARSMITNWYFDVWGAGTTVTVSS
VL: DIQMTQSPSTLSASVGDRVTITCKCQLSVGYMHWYQQKPGKAPKLLIYDTSKLASGVPSRFSGSGSGTEFTLTISSLQPDDFATYYCFQGSGYPFTFGGGTKLEIK
B9: antibody from clone 853 (antibody, human IgG1, kappa, V domains shown)
VH: EVQLVQSGAEVKKPGQSLKISCKTSGYIFTNYWIGWVRQRPGKGLEWMGVIFPADSDARYSPSFQGQVTISADKSIGTAYLQWSSLKASDTAIYYCARPKYYFDSSGQFSEMYYFDFWGQGTLVTVSS
VL: EIVLTQSPGTLSLSPGERATLSCRASQSVSSNYLAWYQQKPGQAPRLLIYGASSRAAGMPDRFSGSGSGTDFTLTISRLEPEDFAVYYCQQYGNSPLTFGGGTEVEIKR
B10: Fab fragment of antibody from clone 853 (Fab, V domains shown)
VH: B9 VH
VL: B9 VL
notes: also called Fab clone 853; 853 (G)
B11: antibody from clone 888 (antibody, human IgG1, kappa, V domains shown)
VH: QLQLQESGPGLVKPSETLSLTCTASGGSINSSNFYWGWIRQPPGKGLEWIGSIFYSGTTYYNPSLKSRVTISVDTSKNQFSLKLSPVTAADTAVYHCARHGFRYCNNGVCSINLDAFDIWGQGTMVTVSS
VL: DIVMTQSPLSLPVTPGAPASISCRSSQSLLRTNGYNYLDWYLQKPGQSPQLLIYLGSIRASGVPDRFSGSGSGTDFTLKISRVEAEDVGVYYCMQSLQTSITFGQGTRLEIKR
B12: antibody from clone 835 (antibody, human IgG1, kappa, V domains shown)
VH: QVQLVQSGAEVKRPGASVKVSCKASGYTFISYGFSWVRQAPGQGLEWMGWSSVYNGDTNYAQKFHGRVNMTTDTSTNTAYMELRGLRSDDTAVYFCARDRNVVLLPAAPFGGMDVWGQGTMVTVSS
VL: DIQLTQSPSFLSASLEDRVTITCRASQGISSYLAWYQQKPGKAPKLLLDAASTLQSGVPSRFSGSGSGTEFTLTISSLQPEDFATYYCQQLNSYPRTFGQGTKVDIKR
B13: antibody from clone 841 (antibody, human IgG1, kappa, V domains shown)
VH: QVQLVQSGAEVKKPGASVKVSCKASGYTFISFGISWVRQAPGQGLEWMGWISAYNGNTDYAQRLQDRVTMTRDTATSTAYLELRSLKSDDTAVYYCTRDESMLRGVTEGFGPIDYWGQGTLVTVSS
VL: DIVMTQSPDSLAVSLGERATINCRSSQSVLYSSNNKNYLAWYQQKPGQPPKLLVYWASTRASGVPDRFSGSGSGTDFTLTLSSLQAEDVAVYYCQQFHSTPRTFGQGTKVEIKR
B14: Fab fragment of antibody from clone 816 (Fab, V domains shown)
VH: EVQLLESGGGLVQPGGSLRLSCVASGFTFSTYAMTWVRQAPGKGLEWVSVIRASGDSEIYADSVRGRFTISRDNSKNTVFLQMDSLRVEDTAVYFCANIGQRRYCSGDHCYGHFDYWGQGTLVTVSS
VL: DIVMTQSPLSLPVTPGEPASISCRSSQSLLHSDGRYYVDWYLQKPGQSPHLLIYLASNRASGVPDRFTGSGSGTDFTLKISRVEAEDVGVYYCMQGLHTPWTFGQGTKVDIKR
B15: antibody from clone 816 (antibody, human IgG1, kappa, V domains shown)
VH: B14 VH
VL: B14 VL

Columns and labels:
[1] = biological target: T1, recombinant human fractalkine (CX3CL1; …); assay: ELISA
[2] = biological target: RSV G protein (receptor-binding glycoprotein) (human respiratory syncytial virus, …); assay: cell-based or functional assay
[3] = biological target: T2, soluble recombinant G protein (amino …); assay: SPR (Biacore 3000), Fab over immobilised recombinant antigen;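 note: antigen immobilised on CM5 chip at very low density (about 50 RU), rate constants fitted globally with a 1:1 Langmuir model, Fabs obtained by enzymatic cleavage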
[4] = biological target: RSV protein F (fusion glycoprotein), recombinant or purified (human respiratory syncytial virus, …, UniProt P03420 26-109; P03420 137-524); assay: cell-based or functional assay
RSV protein F (fusion glycoprotein), recombinant or purified, sequence (P03420 26-109, chain 1 of 2): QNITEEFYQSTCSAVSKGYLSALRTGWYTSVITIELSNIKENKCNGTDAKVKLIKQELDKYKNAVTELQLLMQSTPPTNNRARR
RSV protein F (fusion glycoprotein), recombinant or purified, sequence (P03420 137-524, chain 2 of 2): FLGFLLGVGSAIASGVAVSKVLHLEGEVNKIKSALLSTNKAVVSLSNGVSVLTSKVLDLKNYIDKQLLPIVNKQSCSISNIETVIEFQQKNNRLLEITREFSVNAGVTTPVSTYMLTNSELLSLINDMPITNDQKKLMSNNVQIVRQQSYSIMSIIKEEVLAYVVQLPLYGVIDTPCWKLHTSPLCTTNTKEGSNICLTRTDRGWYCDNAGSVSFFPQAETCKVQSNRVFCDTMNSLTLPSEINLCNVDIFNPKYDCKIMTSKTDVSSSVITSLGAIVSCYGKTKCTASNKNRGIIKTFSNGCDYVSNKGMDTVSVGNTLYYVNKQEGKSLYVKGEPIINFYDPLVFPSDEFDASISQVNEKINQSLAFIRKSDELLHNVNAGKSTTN

Binder	binding result [1]	EC50, PRNT with complement, RSV subtype A [2]	Kd [3]	koff [3]	kon [3]	t1/2 [3]	EC50, PRNT with complement, RSV subtype A [4]
B1	no binding	6.35 µg/mL					
B2			0.48 nM	0.000403 s⁻¹	833000 M⁻¹ s⁻¹	0.478 h	
B3	no binding	2.52 µg/mL					
B4			0.19 nM	5.06e-05 s⁻¹	264000 M⁻¹ s⁻¹	3.83 h	
B5			0.12 nM	4.63e-05 s⁻¹	380000 M⁻¹ s⁻¹	4.17 h	
B6			0.34 nM	0.000171 s⁻¹	498000 M⁻¹ s⁻¹	1.13 h	
B7	no binding						
B8							0.14 µg/mL
B9	no binding	1.49 µg/mL					
B10			0.79 nM	0.0014 s⁻¹	1.77e+06 M⁻¹ s⁻¹	0.138 h	
B11	no binding	0.14 µg/mL					
B12	no binding						
B13	no binding						
B14			0.09 nM	0.000178 s⁻¹	2.02e+06 M⁻¹ s⁻¹	1.08 h	
B15	no binding						
